Test results taken from patent US20230374088A1.

Biological target: mNeonGreen-tagged full length Gli2 (human) (UniProt P10070)
Test: cell-based or functional assay

mRuby-tagged Kif7-CC (460-600aa) with ER localization signal (from UniProt Q2M1P5 460-600)
amount of Gli2 in the nucleus as a percentage of total Gli expression (mNeonGreen intensity), HeLa cells: < 25%
